Positions count from the first letter of the chain named.
How the values were obtained:
Assay in all cases: SPR, KD relative to WT C2;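 also: biacore SPR at 37 °C, anti-C2 mAbs captured via immobilised goat anti-human IgG, C2 alanine or serine surface mutants as analytes, 1:1 model fitted, double-referenced sensograms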
human C2 S278A = biological target: T1, human C2 S278A (human, UniProt P06681 21-752)
T1 sequence: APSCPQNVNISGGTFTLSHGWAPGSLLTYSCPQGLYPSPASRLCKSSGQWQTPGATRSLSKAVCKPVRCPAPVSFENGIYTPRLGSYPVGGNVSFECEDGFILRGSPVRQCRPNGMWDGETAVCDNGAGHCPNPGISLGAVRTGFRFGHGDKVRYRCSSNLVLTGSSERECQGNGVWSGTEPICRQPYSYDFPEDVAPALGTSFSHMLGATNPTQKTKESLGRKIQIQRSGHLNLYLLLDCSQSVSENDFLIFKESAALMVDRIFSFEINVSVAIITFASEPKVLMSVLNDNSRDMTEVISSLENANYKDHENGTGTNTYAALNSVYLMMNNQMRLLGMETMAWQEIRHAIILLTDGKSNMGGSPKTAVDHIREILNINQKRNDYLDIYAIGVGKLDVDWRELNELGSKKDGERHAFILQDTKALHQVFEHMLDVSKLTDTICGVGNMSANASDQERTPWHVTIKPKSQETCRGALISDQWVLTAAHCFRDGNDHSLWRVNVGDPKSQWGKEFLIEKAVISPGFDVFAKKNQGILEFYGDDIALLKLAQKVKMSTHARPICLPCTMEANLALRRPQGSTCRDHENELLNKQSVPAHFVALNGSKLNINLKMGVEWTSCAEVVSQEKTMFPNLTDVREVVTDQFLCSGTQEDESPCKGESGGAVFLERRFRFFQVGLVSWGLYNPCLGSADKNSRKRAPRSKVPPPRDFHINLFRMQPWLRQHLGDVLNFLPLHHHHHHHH
Protocol: (§1) Surface plasmon resonance (SPR, Biacore) was used for all binding affinity analyses. In brief, goat anti-human IgG was directly immobilised onto the carboxymethyl dextran surface of CM5 sensorchips to approximately 12,000 RU using standard NHS/EDC chemistry at pH 5. The immobilised antibody surface was pre-conditioned with ten injections of polyclonal human IgG (Privigen 60 s) prepared at 1 μg/mL. Ligands (anti-C2 mAbs) were captured at the beginning of each cycle as described below. An adjacent spot or flow cell in which only Polyclonal IgG was capture was used as a reference surface. The goat anti-human IgG Fc antibody surface was regenerate in 100 mM H3PO4, injected for 45 seconds at the end of each cycle. Experiments were performed at 37° C. and the flow rate of each experiment was kept constant at 30 μL/min.
(§2) Sensogram data was double-referenced against a reference anti-IgG surface (i.e. minus anti-C2 mAb) and blank buffer injections obtained within each experiment. The binding data was fit to 1:1 (kinetic or steady-state) model using local Rmax and null refraction index (RI=0) when appropriate. Buffers and solutions were filtered (0.22 μm) prior to use.

human C2 E267A = biological target: T2, human C2 E267A (human, UniProt P06681 21-752)
T2 sequence: T1 sequence with E247A, A258S
Protocol: as §1, §2

human C2 P718A = biological target: T3, human C2 P718A (human, UniProt P06681 21-752)
T3 sequence: T1 sequence with A258S, P698A
Protocol: as §1, §2

human C2 R714A = biological target: T4, human C2 R714A (human, UniProt P06681 21-752)
T4 sequence: T1 sequence with A258S, R694A
Protocol: as §1, §2

B1: RF16-226 (antibody, human IgG4 S228P, lambda)
heavy: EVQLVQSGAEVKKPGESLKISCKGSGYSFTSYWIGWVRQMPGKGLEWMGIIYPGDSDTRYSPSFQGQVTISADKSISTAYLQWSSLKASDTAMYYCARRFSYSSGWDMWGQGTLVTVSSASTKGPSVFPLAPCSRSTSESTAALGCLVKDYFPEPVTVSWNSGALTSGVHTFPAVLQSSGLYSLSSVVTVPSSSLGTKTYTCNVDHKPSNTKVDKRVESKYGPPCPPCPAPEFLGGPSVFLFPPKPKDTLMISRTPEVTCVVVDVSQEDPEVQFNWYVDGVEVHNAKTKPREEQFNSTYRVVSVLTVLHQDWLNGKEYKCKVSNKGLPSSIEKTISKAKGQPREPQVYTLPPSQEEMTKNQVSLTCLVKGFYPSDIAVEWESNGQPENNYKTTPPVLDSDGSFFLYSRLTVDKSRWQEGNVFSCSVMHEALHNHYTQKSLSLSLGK
light: SYELTQPPSVSVSPGQTARITCSGDALTSKYVAWYQQKSGLAPLLVIYEDTRRPSGIPAKFSGSSSGSVATLTISGAHGDDEADYYCYSTDASGHQRVFGGGTKLTVLSQPKAAPSVTLFPPSSEELQANKATLVCLISDFYPGAVTVAWKADGSPVKAGVETTKPSKQSNNKYAASSYLSLTPEQWKSHRSYSCQVTHEGSTVEKTVAPTECS
notes: pH-dependent anti-C2 antibody from a phage display library; also called WT
Question: With B1 as the binder, how does the Fold diff (human C2 S278A) read?
Answer: 1 fold

Question: What about the Fold diff (human C2 E267A) of the same binder?
Answer: 1 fold

Question: And the Fold diff (human C2 P718A)?
Answer: 2 fold

Question: What about the Fold diff (human C2 R714A) of the same binder?
Answer: 5 fold

Reference: patent US20220332804A1 (CSL INNOVATION, published 2022)
